Source: the Human Domainome abundance scans (Beltran et al. 2025)
± gives the uncertainty stated by the source.

B1: Far upstream element-binding protein 3, residues 75 to 150; numbered along this chain, Q96I24 (parent)
chain: RTVITEEFKVPDKMVGFIIGRGGEQISRIQAESGCKIQIASESSGIPERPCVLTGTPESIEQAKRLLGQIVDRCRN

Variants of: B1
Experiment: abundance fitness (aPCA) (normalised: wild type 0, dead -1); higher = more abundant; growth selection in yeast, the domain comes from the species named
Conditions: Homo sapiens

Variant	abundance fitness
R21M	-0.002 ± 0.047
R21T	0.009 ± 0.041
R21Y	-0.182 ± 0.072
S44P	-0.058 ± 0.043
S44V	-0.05 ± 0.031
S44Q	0.006 ± 0.044
S44L	-0.017 ± 0.034
Q69V	-0.009 ± 0.031
K13G	-0.027 ± 0.026
K13W	-0.142 ± 0.032
K13I	-0.286 ± 0.068
K13H	0.016 ± 0.056
K13L	-0.198 ± 0.032
K13Y	0.022 ± 0.06
K13D	-0.082 ± 0.043
I4L	-0.081 ± 0.03
I4N	-0.081 ± 0.061
I4G	-0.14 ± 0.026
I4V	-0.047 ± 0.029
I4E	-0.059 ± 0.034
A63I	-0.457 ± 0.087
A63H	-0.911 ± 0.1
A63S	-0.401 ± 0.036
A63K	-0.968 ± 0.086

Variant	abundance fitness
A63F	-0.427 ± 0.07
A63G	-0.065 ± 0.025
Q38N	-0.086 ± 0.066
Q38A	-0.038 ± 0.031
Q38P	-0.829 ± 0.074
C35W	-0.895 ± 0.054
C35Y	-0.578 ± 0.12
G20P	-0.347 ± 0.041
G20R	-0.168 ± 0.028
G20C	-0.459 ± 0.047
G20Q	-0.116 ± 0.04
I37A	-0.515 ± 0.034
I37F	-0.447 ± 0.06
I37P	-0.609 ± 0.048
I37Q	-0.665 ± 0.048
I37T	-0.505 ± 0.047
I37Y	-0.799 ± 0.088
I29T	-0.271 ± 0.042
I29Q	-0.599 ± 0.052
I29K	-0.676 ± 0.058
I29S	-0.595 ± 0.038
Q30W	-0.487 ± 0.038
Q30E	0.029 ± 0.033
Q30S	-0.051 ± 0.037

Variant	abundance fitness
Q30I	-0.131 ± 0.059
Q30R	-0.05 ± 0.026
Q30P	-0.693 ± 0.05
E48V	-0.127 ± 0.029
E48D	0.001 ± 0.045
E48Y	-0.056 ± 0.057
E48F	-0.09 ± 0.046
S41F	-0.176 ± 0.059
S41P	-0.027 ± 0.041
S41D	-0.06 ± 0.044
R75T	0.052 ± 0.044
R75S	-0.021 ± 0.035
R75H	-0.006 ± 0.069
R75I	-0.107 ± 0.067
R75P	-0.025 ± 0.038
S43K	-0.11 ± 0.056
S43F	-0.092 ± 0.1
S43E	-0.049 ± 0.039
S43I	0.028 ± 0.069
S27P	-0.232 ± 0.05
S27Y	-0.241 ± 0.095
S27E	-0.014 ± 0.043
S27V	-0.092 ± 0.033
S27W	-0.167 ± 0.035

Variant	abundance fitness
S27A	-0.033 ± 0.034
S27C	-0.147 ± 0.054
S27D	-0.084 ± 0.075
L66D	-0.123 ± 0.049
L66Q	-0.072 ± 0.044
Q25W	-0.213 ± 0.033
G22D	0.016 ± 0.051
G22R	-0.012 ± 0.027
G22T	-0.09 ± 0.041
G22V	-0.191 ± 0.031
V15Y	-0.141 ± 0.065
E61K	-0.026 ± 0.041
E61A	-0.037 ± 0.032
E61H	-0.031 ± 0.06
E61C	-0.078 ± 0.042
E61N	-0.064 ± 0.051
E61L	-0.082 ± 0.031
E61S	-0.026 ± 0.035
E61F	-0.035 ± 0.056
E61P	-0.553 ± 0.044
R65S	-0.026 ± 0.035
R65K	0.012 ± 0.044
R65D	-0.031 ± 0.057
R65Q	-0.004 ± 0.04

Variant	abundance fitness
R65Y	-0.046 ± 0.052
R65F	0.017 ± 0.058
R65V	-0.006 ± 0.029
L53V	-0.227 ± 0.033
L53R	-1.25 ± 0.066
L53M	-0.134 ± 0.045
L53H	-1.09 ± 0.35
V71Q	-0.048 ± 0.044
V71H	-0.21 ± 0.054
G55W	-1.34 ± 0.076
G55A	-0.855 ± 0.04
G55I	-1.12 ± 0.2
G55M	-1.24 ± 0.1
G55R	-1.07 ± 0.041
G55H	-1.22 ± 0.14
F17A	-0.013 ± 0.034
F17W	-0.052 ± 0.037
F17Q	-0.031 ± 0.045
I18H	-0.279 ± 0.058
I18E	-0.182 ± 0.035
I18N	-0.295 ± 0.056
I18P	-0.192 ± 0.041
I18Y	-0.261 ± 0.065
I18S	-0.271 ± 0.034

Variant	abundance fitness
I18L	-0.085 ± 0.032
P47A	-0.03 ± 0.03
P47M	-0.072 ± 0.038
P47H	-0.028 ± 0.05
P47Q	-0.068 ± 0.039
I60Q	-0.806 ± 0.062
I60P	-1.1 ± 0.089
I60G	-0.988 ± 0.038
I60R	-0.21 ± 0.028
I60H	-0.631 ± 0.071
I60W	-0.995 ± 0.059
M14Q	-0.248 ± 0.043
M14W	-0.063 ± 0.032
M14Y	-0.176 ± 0.083
M14A	-0.172 ± 0.035
P57H	-0.096 ± 0.08
P57S	-0.109 ± 0.042
P57E	-0.045 ± 0.045
P57I	-0.131 ± 0.1
P57Y	-0.133 ± 0.1
C74Y	-0.126 ± 0.059
C74V	-0.037 ± 0.03
C74G	0.041 ± 0.027
C74N	-0.007 ± 0.071

Variant	abundance fitness
C74E	-0.041 ± 0.037
C74T	0.004 ± 0.036
N76F	0.023 ± 0.1
N76H	-0.1 ± 0.076
N76E	-0.025 ± 0.067
N76C	-0.069 ± 0.06
E32H	-0.2 ± 0.064
E32M	-0.045 ± 0.038
E32D	-0.005 ± 0.047
E32Q	0.016 ± 0.04
E32S	-0.093 ± 0.032
G68M	0.001 ± 0.044
G68P	-0.723 ± 0.061
D12P	-0.058 ± 0.039
D12F	-0.186 ± 0.064
D12K	-0.066 ± 0.049
D12S	-0.027 ± 0.032
D72A	-0.052 ± 0.029
D72V	-0.093 ± 0.029
D72N	-0.155 ± 0.061
D72E	0.003 ± 0.033
D72F	-0.118 ± 0.065
D72Y	-0.124 ± 0.064
R28M	-0.104 ± 0.046

Variant	abundance fitness
S33Q	-0.732 ± 0.057
S33V	-0.247 ± 0.033
I70C	-0.023 ± 0.039
I70T	0.014 ± 0.046
I70V	0.024 ± 0.031
I70M	-0.013 ± 0.04
I70Q	-0.064 ± 0.043
I70G	-0.205 ± 0.027
E42F	-0.093 ± 0.063
E42Y	-0.086 ± 0.057
E42K	-0.047 ± 0.052
E42D	-0.023 ± 0.048
E42W	-0.069 ± 0.035
E42L	-0.086 ± 0.034
G34I	-0.736 ± 0.2
G34H	-0.155 ± 0.064
G34F	-0.292 ± 0.07
G34N	-0.046 ± 0.11
A40Q	0.044 ± 0.039
A40V	-0.094 ± 0.029
A40L	-0.038 ± 0.03
A40Y	-0.112 ± 0.062
A40F	0.013 ± 0.057
A40P	-0.024 ± 0.04

Variant	abundance fitness
A40D	0.002 ± 0.043
K9R	-0.09 ± 0.027
K9W	-0.053 ± 0.031
K9G	-0.006 ± 0.026
K9D	-0.129 ± 0.044
K9F	-0.031 ± 0.056
K9T	-0.057 ± 0.038
K9Y	-0.114 ± 0.056
K9C	-0.057 ± 0.041
R1G	-0.042 ± 0.027
I46H	0.02 ± 0.066
I46C	0.023 ± 0.048
I46W	-0.093 ± 0.033
I46P	0.016 ± 0.046
R49E	-0.159 ± 0.037
R49M	-0.169 ± 0.039
R49A	-0.173 ± 0.037
T54L	-0.129 ± 0.048
T54A	-0.11 ± 0.046
T54K	-0.033 ± 0.051
T54D	-0.187 ± 0.077
T54E	-0.071 ± 0.05
T54M	-0.077 ± 0.05
T54R	-0.018 ± 0.034

Variant	abundance fitness
T54F	-0.378 ± 0.23
S59P	-0.866 ± 0.067
S59C	-0.146 ± 0.047
S59T	-0.119 ± 0.046
S59Q	-0.014 ± 0.043
T56W	-0.332 ± 0.033
T56I	-0.225 ± 0.059
T56K	-0.166 ± 0.04
V10R	-0.8 ± 0.035
V10A	-0.287 ± 0.034
V10E	-0.631 ± 0.039
V10Y	-0.291 ± 0.059
E6H	-0.09 ± 0.063
E6T	-0.06 ± 0.039
E6V	-0.051 ± 0.029
E58A	-0.025 ± 0.04
E58Q	-0.066 ± 0.044
E58L	-0.17 ± 0.038
E58V	-0.107 ± 0.036
A31W	-0.168 ± 0.03
A31Y	-0.076 ± 0.05
A31G	-0.06 ± 0.025
A31V	-0.061 ± 0.029
G23E	-0.037 ± 0.032

Variant	abundance fitness
G23V	-0.193 ± 0.029
G23M	-0.078 ± 0.041
G23Y	-0.182 ± 0.061
G23Q	-0.042 ± 0.036
G23R	-0.056 ± 0.025
V3I	0.044 ± 0.075
V3A	-0.064 ± 0.034
V3L	-0.007 ± 0.034
V3C	-0.081 ± 0.044
K36T	-0.051 ± 0.04
K36Q	-0.065 ± 0.045
K36S	-0.034 ± 0.035
K36V	-0.101 ± 0.032
K36G	-0.112 ± 0.029
K36M	-0.066 ± 0.042
L67T	-0.666 ± 0.058
L67P	-0.649 ± 0.091
L67E	-0.757 ± 0.051
L67N	-0.884 ± 0.1
L67K	-0.834 ± 0.07
L67D	-0.884 ± 0.089
L67Y	-1.04 ± 0.13
L67W	-0.981 ± 0.059
F8T	-0.042 ± 0.046

Variant	abundance fitness
F8H	-0.173 ± 0.071
F8E	-0.351 ± 0.038
C51H	-0.475 ± 0.092
T5C	-0.203 ± 0.073
T5S	-0.082 ± 0.039
T5L	-0.314 ± 0.044
T5I	-0.231 ± 0.1
I19M	-0.062 ± 0.043
I19P	-0.25 ± 0.043
I19W	-0.096 ± 0.037
I19V	-0.033 ± 0.033
I19D	-0.071 ± 0.055
R73C	-0.157 ± 0.05
R73T	0.019 ± 0.042
R73E	0.043 ± 0.036
R73D	0.047 ± 0.052
R73L	-0.104 ± 0.033
R73I	-0.136 ± 0.07
R73S	-0.04 ± 0.033
I39T	-0.321 ± 0.039
I39W	-0.159 ± 0.031
I39G	-0.48 ± 0.027
Q62S	-0.023 ± 0.03
Q62V	-0.008 ± 0.033

Variant	abundance fitness
Q62G	-0.055 ± 0.035
Q62M	-0.023 ± 0.042
Q62A	-0.01 ± 0.033
P11T	-0.136 ± 0.041
P11Y	-0.303 ± 0.068
P11S	-0.182 ± 0.037
T2W	-0.133 ± 0.038
T2F	-0.031 ± 0.063
T2H	-0.06 ± 0.062
T2Q	-0.003 ± 0.042
T2V	-0.035 ± 0.033
E7C	-0.135 ± 0.037
E7K	-0.01 ± 0.041
E7P	-0.136 ± 0.043
E7V	-0.036 ± 0.029
E7L	-0.048 ± 0.029
K64H	-0.421 ± 0.058
K64G	-0.658 ± 0.032
P50N	0.01 ± 0.052
P50T	-0.053 ± 0.035
P50I	0.004 ± 0.05
P50K	-0.029 ± 0.036
P50Y	-0.113 ± 0.048
P50C	-0.054 ± 0.047

Variant	abundance fitness
P50S	-0.046 ± 0.031
E24K	0.063 ± 0.042
E24I	-0.035 ± 0.055
E24T	0.008 ± 0.038
V52L	-0.023 ± 0.033
V52N	-0.133 ± 0.056
V52M	-0.039 ± 0.046
V52Y	-0.115 ± 0.056
V52C	-0.093 ± 0.051
V52P	-0.931 ± 0.069
G16H	-0.042 ± 0.052
G16N	-0.055 ± 0.065
G16D	-0.003 ± 0.043
G16I	-0.194 ± 0.075
G16W	-0.21 ± 0.038
G45I	-0.158 ± 0.06
I26M	-0.052 ± 0.042
I26K	-0.232 ± 0.041
I26V	-0.024 ± 0.031
I26N	-0.538 ± 0.08
I26S	-0.436 ± 0.035
I26A	-0.192 ± 0.034
